Reference: US20240067738A1 (ELANCO US, published 2024)

T1: Canine IL4R-ECD_C-His6 (processed) (canine, biotinylated through amine chemistry; sites not stated)
T1 construct: Whole construct (ECD, linker, His6) is one entry; Captured biotinylated on streptavidin tips or wells
T1 chain: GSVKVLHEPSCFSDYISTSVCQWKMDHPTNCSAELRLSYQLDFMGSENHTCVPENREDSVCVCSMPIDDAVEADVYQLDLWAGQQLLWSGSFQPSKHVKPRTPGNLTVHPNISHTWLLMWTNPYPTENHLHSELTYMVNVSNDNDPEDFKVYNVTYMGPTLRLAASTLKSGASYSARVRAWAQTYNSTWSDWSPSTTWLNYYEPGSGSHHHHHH

T2: canine IL4R (Examples 16, 18 and 19; construct not stated) (canine, biotinylated; sites not stated)
T2 construct: also called Biotinylated canine IL4R; canine IL4R extracellular domains
T2 chain: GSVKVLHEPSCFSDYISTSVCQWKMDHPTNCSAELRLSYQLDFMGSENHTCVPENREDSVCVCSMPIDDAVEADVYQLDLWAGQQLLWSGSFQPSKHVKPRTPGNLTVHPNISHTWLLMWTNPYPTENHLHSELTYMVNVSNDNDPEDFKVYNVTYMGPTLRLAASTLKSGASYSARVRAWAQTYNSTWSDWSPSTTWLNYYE


Assays:
[1] = target: T3, Canine IL4R-ECD_C-HuFc_His6 (processed) (canine); test: BLI (Octet), IL4R-ECD_C-HuFc_His6 on anti-human Fc tips
T3 construct: Whole construct (ECD, linker, human Fc, His6) is one entry
Description: An alternative binding assay was performed also using an Octet Biosensor. Canine IL4R-ECD_C-HuFc_His6 (SEQ ID NO: 109) was captured on anti-human Fc-bound sensor tips. The association of either Clone B or I antibody and canine IL4R-ECD_C-HuFc_His6 was monitored for 600 seconds. Dissociation was monitored for 600 seconds. The buffer for dilutions and all binding steps was 20 mM phosphate, 150 mM NaCl, pH 7.2. […] In addition, amine conjugation may affect the affinity of canine IL4R-ECD_C-His6 to interact with Clone B and I antibodies.

[2] = target: T1, Canine IL4R-ECD_C-His6 (processed); test: BLI (Octet), biotinylated IL4R-ECD_C-His6 on streptavidin tips, 1:1 fit
Description: The binding analysis was performed using an Octet Biosensor as follows. Briefly, canine IL4R-ECD_C-His6 (SEQ ID NO: 107) was biotinylated through amine chemistry. The free unreacted biotin was removed by extensive dialysis. Biotinylated canine IL4R-ECD_C-His6 was captured on streptavidin sensor tips. The association of either Clone B or I antibody and canine IL4R-ECD_C-His6 (25 μg/mL) was monitored for 600 seconds. Dissociation was monitored for 600 seconds. A buffer only blank curve was subtracted to correct for any drift. The data were fit to a 1:1 binding model using ForteBio™ data analysis software to determine the kₒₙ, koff, and the Kd. The buffer for dilutions and all binding steps was 20 mM phosphate, 150 mM NaCl, pH 7.2.

[3] = target: Human IL4R-ECD_C-HuFc_His6 (processed) (human); test: Western blot
Human IL4R-ECD_C-HuFc_His6 (processed) (human), sequence (chain, as listed by the source limits assumed): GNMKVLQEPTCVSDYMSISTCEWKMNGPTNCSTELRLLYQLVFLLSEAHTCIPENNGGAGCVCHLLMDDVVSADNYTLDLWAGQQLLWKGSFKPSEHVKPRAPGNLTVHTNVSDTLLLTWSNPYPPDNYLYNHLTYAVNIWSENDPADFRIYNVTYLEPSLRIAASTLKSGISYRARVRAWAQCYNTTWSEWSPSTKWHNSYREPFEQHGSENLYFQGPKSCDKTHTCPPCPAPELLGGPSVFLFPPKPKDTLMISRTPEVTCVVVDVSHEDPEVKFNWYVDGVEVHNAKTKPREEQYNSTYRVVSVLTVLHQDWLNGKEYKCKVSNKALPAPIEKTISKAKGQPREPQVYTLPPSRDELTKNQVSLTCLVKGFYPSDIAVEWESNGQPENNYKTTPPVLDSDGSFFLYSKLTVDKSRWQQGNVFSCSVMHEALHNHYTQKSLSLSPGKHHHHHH

[4] = target: T3, Canine IL4R-ECD_C-HuFc_His6 (processed); test: Western blot
[5] = target: T2, canine IL4R (Examples 16, 18 and 19; …); test: BLI (ForteBio OctetRed), biotinylated canine IL4R on streptavidin tip
[6] = target: T2, canine IL4R (Examples 16, 18 and 19; …); test: BLI (ForteBio OctetRed)
[7] = target: T2, canine IL4R (Examples 16, 18 and 19; …); test: method not stated

Binder	Kd [5] [nM]	Kd [6] [nM]	Kd [7] [nM]	further results
Clone B mouse monoclonal antibody (antibody, mouse IgG1, kappa, V domains shown, also called Clone B antibody; anti-IL4R-mAb Clone B) VH: EVKLEESGPELVKPGASVKMSCKASGYTFTSYVMHWVKQKPGQGLEWIGYINPKNDGTFYNGKFKGKATLTSDKSSSTAYMELSSLTSEDSAVYYCAAFNYGIAYWGQGTLVTVSS VL: IVLTQTPSSLSASLGERVSLTCRASQEISGYLSWLQQKPDGTIKRLIYAASTLDSGVPKRFSGSRSGSDFSLTISSLESEDFADYYCVQYASYPWTFGGGARLEIKR	–	–	–	Kd [1]: ~0.1 nM; Kd [2]: 2.03 nM
M9 mouse monoclonal antibody (antibody, V domains shown, Mouse antibody purified from hybridoma culture; also called Clone M9) VH: DVQLVESGGGLVQPGGSRKLSCAASGFTFSSFGMHWVRQAPEKGLEWVAYIRSDSSTIYYADTVKGRFTISRDNPKNTLFLQMTSLRSEDTAMYYCARSGYYGSFSLTYWGQGTLVTVSA VL: EIVLTQSPTTMAASPGEKITITCSASSSVSSNYLHWYQQKPGFSPKLLIYRTSNLPSGVPARFFGSGSGTSYSLTIGTMEAEDVATYYCQQGSGMLTFGAGTKLELK	< 10	–	–	binding result [3]: no binding; binding result [4]: binds
murine-canine chimeric M9 antibody (canine IgG-B, canine kappa) (antibody, V domains shown, also called chimeric canine IgG-B (M9)) VH: DVQLVESGGGLVQPGGSRKLSCAASGFTFSSFGMHWVRQAPEKGLEWVAYIRSDSSTIYYADTVKGRFTISRDNPKNTLFLQMTSLRSEDTAMYYCARSGYYGSFSLTYWGQGTLVTVSA VL: EIVLTQSPTTMAASPGEKITITCSASSSVSSNYLHWYQQKPGFSPKLLIYRTSNLPSGVPARFFGSGSGTSYSLTIGTMEAEDVATYYCQQGSGMLTFGAGTKLELK	–	< 10	–	–
caninized M9 antibody, variable HC v1 with variant canine IgG-B (C1q-, CD16-) and variable LC v1 with canine kappa (antibody, V domains shown, also called caninized M9 HC v1 / LC v1) VH: EVQLVESGGDLVKPGGSLRLSCAASGFTFSSFGMHWVRQAPGKGLEWVAYIRSDSSTIYYADAVKGRFTISRDNAKNTLYLQMNSLRAEDTAMYYCARSGYYGSFSLTYWGQGTLVTVSS VL: DIMLTQTPLSLSVSPGEPASISCSASSSVSSNYLHWYLQKAGQSPRLLIYRTSNLPSGVPDRFSGSGSGTDFTLRIGRVEAEDAGIYYCQQGSGMLTFGQGTRLEVRR	–	–	≤ 1	–
caninized M3 antibody, variable HC v1 with variant canine IgG-B (C1q-, CD16-) and variable LC v1 with canine kappa (antibody, V domains shown, also called caninized M3 HC v1 / LC v1) VH: EVQLVESGGDLVKPAGSLRLSCTVSGFSLSRYSVHWVRQAPGKGLEWLGMIWGGGSTDYNSVVKGRFTISRDNAKNTVYLQMNSLRAEDTAMYYCARTYRGYALDYWGQGTLVTVSS VL: DIVMTQTPLSLSVSPGEPASISCRASQDISNYLNWYLQKAGQSPRLLIYYTSRLQSGVPDRFSGSGSGTDFTLRIGRVEAEDAGIYFCQQANTLPLTFGQGTRLEVRR	–	–	≤ 1	–
murine-canine chimeric M5 antibody (canine IgG-B, canine kappa) (antibody, V domains shown, also called chimeric canine IgG-B (M5)) VH: QVQLKESGPGLVAPSQSLSITCTVSGFSLSRYSVHWVRQPPGKGLEWLGMIWGGGSTDYNSVFKSRLSISKDNSKSQVFLKMNSLQTDDTAMYYCARTYRGYALDYWGQGTSVTVSS VL: DIQMTQTTSSLSASLGDRVTISCRASQDISNYLNWYQQKPDGTVKLLIYYTSRLQSGVPSRFSGSGSGTDYCLTISNLEQEDIATYFCQQANTLPLTFGSGTKLELK	–	< 10	–	–

More lines, main results first:

Kd [5] [nM]	Kd [6] [nM]	Kd [7] [nM]	Binder	further results
–	–	≤ 1	caninized M9 antibody, variable HC v2 with variant canine IgG-B (C1q-, CD16-) and variable LC v1 with canine kappa (antibody, V domains shown, also called caninized M9 HC v2 / LC v1) VH: EVQLVESGGDLVKPGGSLRLSCVASGFTFSSFGMHWVRQAPGKGLQWVAYIRSDSSTIYYADAVKGRFTISRDNAKNTLYLQMNSLRAEDTAMYYCARSGYYGSFSLTYWGQGTLVTVSS VL: DIMLTQTPLSLSVSPGEPASISCSASSSVSSNYLHWYLQKAGQSPRLLIYRTSNLPSGVPDRFSGSGSGTDFTLRIGRVEAEDAGIYYCQQGSGMLTFGQGTRLEVRR	–
< 10	–	–	M8 mouse monoclonal antibody (antibody, V domains shown, Mouse antibody purified from hybridoma culture; also called Clone M8) VH: QVQLQQSGPELVKPGALVKISCKASGYTFTSYDINWVKQRPGQGLEWIGWIYPGDGSTKYNEKFKGKATLTADKSSSTAYMQLSSLTSEDSAVYFCARSSFVVWGAGTTVTVSS VL: DIQMTQSSSYLSVSLGGRVTITCKASDPINNWLAWYQQKPGNAPRLLISGATSLETGVPSRISGSGSGKDYSLSITSLQTEDIATYYCHQYWSIPYTFGGGTKLEIK	binding result [3]: no binding; binding result [4]: binds
–	< 10	–	murine-canine chimeric M8 antibody (canine IgG-B, canine kappa) (antibody, V domains shown, also called chimeric canine IgG-B (M8)) VH: QVQLQQSGPELVKPGALVKISCKASGYTFTSYDINWVKQRPGQGLEWIGWIYPGDGSTKYNEKFKGKATLTADKSSSTAYMQLSSLTSEDSAVYFCARSSFVVWGAGTTVTVSS VL: DIQMTQSSSYLSVSLGGRVTITCKASDPINNWLAWYQQKPGNAPRLLISGATSLETGVPSRISGSGSGKDYSLSITSLQTEDIATYYCHQYWSIPYTFGGGTKLEIK	–
–	–	≤ 1	caninized M3 antibody, variable HC v2 with variant canine IgG-B (C1q-, CD16-) and variable LC v1 with canine kappa (antibody, V domains shown, also called caninized M3 HC v2 / LC v1) VH: ELTLQESGPGLVKPSQTLSLTCTVSGFSLSRYSVHWIRQPRGRGLELLGMIWGGGSTDYNPAFQGRISITADTAKNQFSLQLSSMTTEDTAVYYCARTYRGYALDYWGQGTLVTVSS VL: DIVMTQTPLSLSVSPGEPASISCRASQDISNYLNWYLQKAGQSPRLLIYYTSRLQSGVPDRFSGSGSGTDFTLRIGRVEAEDAGIYFCQQANTLPLTFGQGTRLEVRR	–
< 10	–	–	M3 mouse monoclonal antibody (antibody, V domains shown, Mouse antibody purified from hybridoma culture; also called Clone M3) VH: QVQLKESGPGLVAPSQSLSITCTVSGFSLSRYSVHWVRQPPGKGLEWLGMIWGGGSTDYNSVFKSRLSISKDNSKSQVFLKMNSLQTDDTAMYYCARTYRGYALDYWGQGTSVTVSS VL: DIQMTQTTSSLSASLGDRVTISCRASQDISNYLNWYQQKPDGTVKLLIYYTSRLQSGVPSRFSGSGSGTDYCLTISNLEQEDIATYFCQQANTLPLTFGSGTKLELK	binding result [3]: no binding; binding result [4]: binds
–	< 10	–	murine-canine chimeric M3 antibody (canine IgG-B, canine kappa) (antibody, V domains shown, also called chimeric canine IgG-B (M3)) VH: QVQLKESGPGLVAPSQSLSITCTVSGFSLSRYSVHWVRQPPGKGLEWLGMIWGGGSTDYNSVFKSRLSISKDNSKSQVFLKMNSLQTDDTAMYYCARTYRGYALDYWGQGTSVTVSS VL: DIQMTQTTSSLSASLGDRVTISCRASQDISNYLNWYQQKPDGTVKLLIYYTSRLQSGVPSRFSGSGSGTDYCLTISNLEQEDIATYFCQQANTLPLTFGSGTKLELK	–
< 10	–	–	M5 mouse monoclonal antibody (antibody, V domains shown, Mouse antibody purified from hybridoma culture; also called Clone M5) VH: QVQLKESGPGLVAPSQSLSITCTVSGFSLSRYSVHWVRQPPGKGLEWLGMIWGGGSTDYNSVFKSRLSISKDNSKSQVFLKMNSLQTDDTAMYYCARTYRGYALDYWGQGTSVTVSS VL: DIQMTQTTSSLSASLGDRVTISCRASQDISNYLNWYQQKPDGTVKLLIYYTSRLQSGVPSRFSGSGSGTDYCLTISNLEQEDIATYFCQQANTLPLTFGSGTKLELK	–
